Experimental data reported in publication PMC4384738.

Target: WISp39 (UniProt Q9UIM3)
Assay: anti-GFP co-IP, Western blot
Settings: reference: wild type; sites S2

binding against the reference: lost
Substance: Coronin 1B (from UniProt Q9BR76) S2A
